{
  "source": "paper PMC3006222",
  "origin": "cited, not measured here",
  "molecular_target": "Heat-labile enterotoxin B subunit (LTB) (UniProt P0CK94)",
  "sequence (P0CK94 whole entry)": "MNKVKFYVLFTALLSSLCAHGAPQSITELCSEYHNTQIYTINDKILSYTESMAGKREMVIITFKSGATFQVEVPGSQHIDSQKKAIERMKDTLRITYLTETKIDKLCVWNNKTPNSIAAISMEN",
  "assay": "not stated in this article (acid-induced pentamer disassembly, earlier work)",
  "conditions": "pH 1.9",
  "data": [
    {"substance": "Heat-labile enterotoxin B subunit (LTB)", "values": [
      {"measurement": "threshold pH for acid disassembly of the pentamer", "value": 1.9, "unit": "pH"}
    ]}
  ]
}
